Substrate in the data set: Cc1cc(=O)oc2cc(NC(=O)[C@@H]3CCCN3C(=O)[C@@H](N)C(C)C)ccc12
As to the kind of experiment: AMC release kinetics, allosteric sigmoidal fit. The format is cell-based, Homo sapiens. The following applies: A549 overexpression lysate; […] sitagliptin to exclude DPP4. The source says:
AMC release kinetics, allosteric sigmoidal fit on DPP9-short (reference DPP9) | Enzyme kinetics for DPP9 reference and AFE isoforms

B1: DPP9-short (reference DPP9) (Homo sapiens) (protein)
chain: MATTGTPTADRGDAAATDDPAARFQVQKHSWDGLRSIIHGSRKYSGLIVNKAPHDFQFVQKTDESGPHSHRLYYLGMPYGSRENSLLYSEIPKKVRKEALLLLSWKQMLDHFQATPHHGVYSREEELLRERKRLGVFGITSYDFHSESGLFLFQASNSLFHCRDGGKNGFMVSPMKPLEIKTQCSGPRMDPKICPADPAFFSFINNSDLWVANIETGEERRLTFCHQGLSNVLDDPKSAGVATFVIQEEFDRFTGYWWCPTASWEGSEGLKTLRILYEEVDESEVEVIHVPSPALEERKTDSYRYPRTGSKNPKIALKLAEFQTDSQGKIVSTQEKELVQPFSSLFPKVEYIARAGWTRDGKYAWAMFLDRPQQWLQLVLLPPALFIPSTENEEQRLASARAVPRNVQPYVVYEEVTNVWINVHDIFYPFPQSEGEDELCFLRANECKTGFCHLYKVTAVLKSQGYDWSEPFSPGEDEFKCPIKEEIALTSGEWEVLARHGSKIWVNEETKLVYFQGTKDTPLEHHLYVVSYEAAGEIVRLTTPGFSHSCSMSQNFDMFVSHYSSVSTPPCVHVYKLSGPDDDPLHKQPRFWASMMEAASCPPDYVPPEIFHFHTRSDVRLYGMIYKPHALQPGKKHPTVLFVYGGPQVQLVNNSFKGIKYLRLNTLASLGYAVVVIDGRGSCQRGLRFEGALKNQMGQVEIEDQVEGLQFVAEKYGFIDLSRVAIHGWSYGGFLSLMGLIHKPQVFKVAIAGAPVTVWMAYDTGYTERYMDVPENNQHGYEAGSVALHVEKLPNEPNRLLILHGFLDENVHFFHTNFLVSQLIRAGKPYQLQIYPNERHSIRCPESGEHYEVTLLHFLQEYL
notes: 863 aa short isoform amplified from H358 cDNA or in-house plasmids; overexpressed in A549 cells, whole cell lysate; dimer
Regarding B1, the K0.5 was found to be 4.411 ± 0.752 µM and the Vmax was found to be 2.24 µmol/min/mg.

For orientation: Vmax means the rate approached at saturating substrate.
